Data on 4 substances can be found in the supplement of paper PMC5998384.

For series [1], the system named is HeLa Kyoto. Description: thermal stability score vs G1/S (z-score of summed log2 fold changes over temperatures); higher = more thermally stable than in G1/S.
Series [2] relates to HeLa Kyoto. Description: solubility in G1/S (NP-40 vs SDS abundance) (log2 ratio); higher = more soluble. As to conditions: cell cycle stage: G1/S.
In series [3] the test system is HeLa Kyoto. In words: melting temperature (median over replicates), in situ; higher = more thermally stable.
The subject of series [4] is HeLa Kyoto. In words: solubility change mitosis vs G1/S (difference of NP-40 vs SDS log2 ratios) (log2 ratio difference); higher = more soluble in mitosis.
Where [5] appears, read: cell cycle stage: early G1 (4.5 h after nocodazole release).
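Throughout, for melting temperature (median over replicates), in situ: HeLa Kyoto cells synchronized by double thymidine or nocodazole block, proteins quantified by TMT10plex mass spectrometry, three independent biological replicates.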
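Throughout, for solubility change mitosis vs G1/S (difference of NP-40 vs SDS log2 ratios): synchronized HeLa Kyoto cells (double thymidine block for G1/S, nocodazole release for mitosis), protein amounts in NP-40 versus SDS lysates quantified by mass spectrometry, three biological replicates.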
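Throughout, for solubility in G1/S (NP-40 vs SDS abundance): HeLa Kyoto cells arrested at G1/S by double thymidine block, proteins quantified by TMT10plex mass spectrometry in mild NP-40 versus SDS extracts, three biological replicates.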
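Throughout, for thermal stability score vs G1/S (z-score of summed log2 fold changes over temperatures): synchronized HeLa Kyoto cells, proteins quantified by TMT10plex mass spectrometry, three biological replicates, mitosis taken 0.5 h after nocodazole release, G1/S directly after double thymidine block.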

Turning to “MKEPLLGGECDKAVASQLGLLDEIKTEPDNAQEYCHRQQSRTQENELKINAVFSESASQLTAGIQLSLASSGVNKMLPSVSTTAIQVSCAGCKKILQKGQTAYQRKGSAQLFCSIPCITEYISSASSPVPSKRTCSNCSKDILNPKDVISVQLEDTTSCKTFCSLSCLSSYEEKRKPFVTICTNSILTKCSMCQKTAIIQYEVKYQNVKHNLCSNACLSKFHSANNFIMNCCENCGTYCYTSSSLSHILQMEGQSHYFNSSKSITAYKQKPAKPLISVPCKPLKPSDEMIETTSDLGKTELFCSINCFSAYSKAKMESSSVSVVSVVHDTSTELLSPKKDTTPVISNIVSLADTDVALPIMNTDVLQDTVSSVTATADVIVDLSKSSPSEPSNAVASSSTEQPSVSPSSSVFSQHAIGSSTEVQKDNMKSMKISDELCHPKCTSKVQKVKGKSRSIKKSCCADFECLENSKKDVAFCYSCQLFCQKYFSCGRESFATHGTSNWKKTLEKFRKHEKSEMHLKSLEFWREYQFCDGAVSDDLSIHSKQIEGNKKYLKLIIENILFLGKQCLPLRGNDQSVSSVNKGNFLELLEMRAKDKGEETFRLMNSQVDFYNSTQIQSDIIEIIKTEMLQDIVNEINDSSAFSIICDETINSAMKEQLSICVRYPQKSSKAILIKERFLGFVDTEEMTGTHLHRTIKTYLQQIGVDMDKIHGQAYDSTTNLKIKFNKIAAEFKKEEPRALYIHCYAHFLDLSIIRFCKEVKELRSALKTLSSLFNTICMSGEMLANFRNIYRLSQNKTCKKHISQSCWTVHDRTLLSVIDSLPEIIETLEVIASHSSNTSFADELSHLLTLVSKFEFVFCLKFLYRVLSVTGILSKELQNKTIDIFSLSSKIEAILECLSSERNDVYFKTIWDGTEEICQKITCKGFKVEKPSLQKRRKIQKSVDLGNSDNMFFPTSTEEQYKINIYYQGLDTILQNLKLCFSEFDYCKIKQISELLFKWNEPLNETTAKHVQEFYKLDEDIIPELRFYRHYAKLNFVIDDSCINFVSLGCLFIQHGLHSNIPCLSKLLYIALSWPITSASTENSFSTLPRLKTYLCNTMGQEKLTGPALMAVEQELVNKLMEPERLNEIVEKFISQMKEI [ZMYM1]”, the thermal stability score was determined as 0.329 in series [1] (setting [5]) and 0.818 in series [1] (cell cycle stage: mitosis). The “solubility in G1/S (log2)” value in series [2] is -0.155. This substance also returned a melting temperature in series [3] (cell cycle stage: mitosis) of 50.4 °C. In addition, the “solubility change mitosis (log2)” value in series [4] was -0.06.
For “MKFLLDILLLLPLLIVCSLESFVKLFIPKRRKSVTGEIVLITGAGHGIGRLTAYEFAKLKSKLVLWDINKHGLEETAAKCKGLGAKVHTFVVDCSNREDIYSSAKKVKAEIGDVSILVNNAGVVYTSDLFATQDPQIEKTFEVNVLAHFWTTKAFLPAMTKNNHGHIVTVASAAGHVSVPFLLAYCSSKFAAVGFHKTLTDELAALQITGVKTTCLCPNFVNTGFIKNPSTSLGPTLEPEEVVNRLMHGILTEQKMIFIPSSIAFLTTLERILPERFLAVLKRKISVKFDAVIGYKMKAQ [HSD17B11]”, the thermal stability score in series [1] (setting [5]) was 0.073; in series [1] (cell cycle stage: mitosis), -3.33. Also, the “solubility in G1/S (log2)” value in series [2] is -0.334. In addition, the melting temperature in series [3] (cell cycle stage: G1/S) worked out at 55.1 °C; in series [3] (cell cycle stage: mitosis) it was 54.8 °C. Also, the “solubility change mitosis (log2)” value in series [4] is -0.138.
Regarding “MKGTRAIGSVPERSPAGVDLSLTGLPPPVSRRPGSAATTKPIVRSVSVVTGSEQKRKVLEATGPGGSQAINNLRRSNSTTQVSQPRSGSPRPTEPTDFLMLFEGSPSGKKRPASLSTAPSEKGATWNVLDDQPRGFTLPSNARSSSALDSPAGPRRKECTVALAPNFTANNRSNKGAVGNCVTTMVHNRYTPSERAPPLKSSNQTAPSLNNIIKAATCEGSESSGFGKLPKNVSSATHSARNNTGGSTGLPRRKEVTEEEAERFIHQVNQATVTIQRWYRHQVQRRGAGAARLEHLLQAKREEQRQRSGEGTLLDLHQQKEAARRKAREEKARQARRAAIQELQQKRALRAQKASTAERGPPENPRETRVPGMRQPAQELSPTPGGTAHQALKANNTGGGLPAAGPGDRCLPTSDSSPEPQQPPEDRTQDVLAQDAAGDNLEMMAPSRGSAKSRGPLEELLHTLQLLEKEPDVLPRPRTHHRGRYAWASEVTTEDDASSLTADNLEKFGKLSAFPEPPEDGTLLSEAKLQSIMSFLDEMEKSGQDQLDSQQEGWVPEAGPGPLELGSEVSTSVMRLKLEVEEKKQAMLLLQRALAQQRDLTARRVKETEKALSRQLQRQREHYEATIQRHLAFIDQLIEDKKVLSEKCEAVVAELKQEDQRCTERVAQAQAQHELEIKKLKELMSATEKARREKWISEKTKKIKEVTVRGLEPEIQKLIARHKQEVRRLKSLHEAELLQSDERASQRCLRQAEELREQLEREKEALGQQERERARQRFQQHLEQEQWALQQQRQRLYSEVAEERERLGQQAARQRAELEELRQQLEESSSALTRALRAEFEKGREEQERRHQMELNTLKQQLELERQAWEAGRTRKEEAWLLNREQELREEIRKGRDKEIELVIHRLEADMALAKEESEKAAESRIKRLRDKYEAELSELEQSERKLQERCSELKGQLGEAEGENLRLQGLVRQKERALEDAQAVNEQLSSERSNLAQVIRQEFEDRLAASEEETRQAKAELATLQARQQLELEEVHRRVKTALARKEEAVSSLRTQHEAAVKRADHLEELLEQHRRPTPSTK [CEP131]”, the thermal stability score was -0.343 in series [1] (setting [5]) and 1.44 in series [1] (cell cycle stage: mitosis). For the same substance, the “solubility in G1/S (log2)” value in series [2] amounted to 0.0853. Besides, the melting temperature in series [3] (cell cycle stage: G1/S) was 50.5 °C; in series [3] (cell cycle stage: mitosis), 49.2 °C. Also, the “solubility change mitosis (log2)” value in series [4] came out at 0.357.
In the case of MKI67, the thermal stability score in series [1] (setting [5]) turned out to be 5.66; in series [1] (cell cycle stage: mitosis), 0.979. The “solubility in G1/S (log2)” value in series [2] was -1.82. For the same substance, the melting temperature was found to be 49.4 °C in series [3] (cell cycle stage: G1/S) and 52 °C in series [3] (cell cycle stage: mitosis). Besides, the “solubility change mitosis (log2)” value in series [4] turned out to be 1.29.
